Assay results taken from patent US20220298218A1 (ANTAG THERAPEUTICS, published 2022).
*1 amine or outer side, *2 acyl side, *3 side chain or, on linkers, in order; H or OH if unused. Where no end group is shown, it is not given here. Side-chain parts run from the residue outwards. [ ]: non-standard residue; d: D form. The star is where a group is joined. C18 diacid = O=C(O)CCCCCCCCCCCCCCCCC(=O)*; γGlu = O=C(O)[C@H](CCC(=O)[*:2])N[*:1]; Nle = CCCC[C@H](N)C(=O)O; AEEA = NCCOCCOCC(=O)O

T1: human GIP receptor (human, UniProt P48546 22-466)
T1 sequence (looked up): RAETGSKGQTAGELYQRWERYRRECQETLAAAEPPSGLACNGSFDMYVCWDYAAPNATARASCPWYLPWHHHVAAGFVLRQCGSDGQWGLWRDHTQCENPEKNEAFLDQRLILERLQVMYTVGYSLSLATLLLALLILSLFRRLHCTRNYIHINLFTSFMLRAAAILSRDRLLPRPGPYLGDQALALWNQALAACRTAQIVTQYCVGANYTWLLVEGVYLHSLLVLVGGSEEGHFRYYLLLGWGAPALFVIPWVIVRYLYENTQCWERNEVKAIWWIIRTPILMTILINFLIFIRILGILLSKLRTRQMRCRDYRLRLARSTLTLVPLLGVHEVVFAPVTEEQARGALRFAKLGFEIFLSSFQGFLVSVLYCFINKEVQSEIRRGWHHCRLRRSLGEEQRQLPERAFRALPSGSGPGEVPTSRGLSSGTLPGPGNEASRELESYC

B1: AT693 (peptide)
peptide: EGTFISEYSIALEKIK([AEEA-AEEA-γGlu-C18 diacid])QQEFVEWLLAQKPSSGAPPPS-OH
modifications: N-terminus assumed
SMILES: CC[C@H](C)[C@H](NC(=O)[C@H](CO)NC(=O)[C@H](Cc1ccc(O)cc1)NC(=O)[C@H](CCC(=O)O)NC(=O)[C@H](CO)NC(=O)[C@@H](NC(=O)[C@H](Cc1ccccc1)NC(=O)[C@@H](NC(=O)CNC(=O)[C@@H](N)CCC(=O)O)[C@@H](C)O)[C@@H](C)CC)C(=O)N[C@@H](C)C(=O)N[C@@H](CC(C)C)C(=O)N[C@@H](CCC(=O)O)C(=O)N[C@@H](CCCCN)C(=O)N[C@H](C(=O)N[C@@H](CCCCNC(=O)COCCOCCNC(=O)COCCOCCNC(=O)CC[C@H](NC(=O)CCCCCCCCCCCCCCCCC(=O)O)C(=O)O)C(=O)N[C@@H](CCC(N)=O)C(=O)N[C@@H](CCC(N)=O)C(=O)N[C@@H](CCC(=O)O)C(=O)N[C@@H](Cc1ccccc1)C(=O)N[C@H](C(=O)N[C@@H](CCC(=O)O)C(=O)N[C@@H](Cc1c[nH]c2ccccc12)C(=O)N[C@@H](CC(C)C)C(=O)N[C@@H](CC(C)C)C(=O)N[C@@H](C)C(=O)N[C@@H](CCC(N)=O)C(=O)N[C@@H](CCCCN)C(=O)N1CCC[C@H]1C(=O)N[C@@H](CO)C(=O)N[C@@H](CO)C(=O)NCC(=O)N[C@@H](C)C(=O)N1CCC[C@H]1C(=O)N1CCC[C@H]1C(=O)N1CCC[C@H]1C(=O)N[C@@H](CO)C(=O)O)C(C)C)[C@@H](C)CC
B2: AT691 (peptide)
peptide: EGTFISDYSIALDKIK([AEEA-AEEA-γGlu-C18 diacid])QQDFVNWLLEGGPSSGAPPPS-OH
modifications: N-terminus assumed
SMILES: CC[C@H](C)[C@H](NC(=O)[C@H](CO)NC(=O)[C@H](Cc1ccc(O)cc1)NC(=O)[C@H](CC(=O)O)NC(=O)[C@H](CO)NC(=O)[C@@H](NC(=O)[C@H](Cc1ccccc1)NC(=O)[C@@H](NC(=O)CNC(=O)[C@@H](N)CCC(=O)O)[C@@H](C)O)[C@@H](C)CC)C(=O)N[C@@H](C)C(=O)N[C@@H](CC(C)C)C(=O)N[C@@H](CC(=O)O)C(=O)N[C@@H](CCCCN)C(=O)N[C@H](C(=O)N[C@@H](CCCCNC(=O)COCCOCCNC(=O)COCCOCCNC(=O)CC[C@H](NC(=O)CCCCCCCCCCCCCCCCC(=O)O)C(=O)O)C(=O)N[C@@H](CCC(N)=O)C(=O)N[C@@H](CCC(N)=O)C(=O)N[C@@H](CC(=O)O)C(=O)N[C@@H](Cc1ccccc1)C(=O)N[C@H](C(=O)N[C@@H](CC(N)=O)C(=O)N[C@@H](Cc1c[nH]c2ccccc12)C(=O)N[C@@H](CC(C)C)C(=O)N[C@@H](CC(C)C)C(=O)N[C@@H](CCC(=O)O)C(=O)NCC(=O)NCC(=O)N1CCC[C@H]1C(=O)N[C@@H](CO)C(=O)N[C@@H](CO)C(=O)NCC(=O)N[C@@H](C)C(=O)N1CCC[C@H]1C(=O)N1CCC[C@H]1C(=O)N1CCC[C@H]1C(=O)N[C@@H](CO)C(=O)O)C(C)C)[C@@H](C)CC
B3: AT694 (peptide)
peptide: EGTFISEYSIA[Nle]EKIK([AEEA-AEEA-γGlu-C18 diacid])QQEFVEWLLAQKPSSGAPPPS-OH
modifications: N-terminus assumed
SMILES: CCCC[C@H](NC(=O)[C@H](C)NC(=O)[C@@H](NC(=O)[C@H](CO)NC(=O)[C@H](Cc1ccc(O)cc1)NC(=O)[C@H](CCC(=O)O)NC(=O)[C@H](CO)NC(=O)[C@@H](NC(=O)[C@H](Cc1ccccc1)NC(=O)[C@@H](NC(=O)CNC(=O)[C@@H](N)CCC(=O)O)[C@@H](C)O)[C@@H](C)CC)[C@@H](C)CC)C(=O)N[C@@H](CCC(=O)O)C(=O)N[C@@H](CCCCN)C(=O)N[C@H](C(=O)N[C@@H](CCCCNC(=O)COCCOCCNC(=O)COCCOCCNC(=O)CC[C@H](NC(=O)CCCCCCCCCCCCCCCCC(=O)O)C(=O)O)C(=O)N[C@@H](CCC(N)=O)C(=O)N[C@@H](CCC(N)=O)C(=O)N[C@@H](CCC(=O)O)C(=O)N[C@@H](Cc1ccccc1)C(=O)N[C@H](C(=O)N[C@@H](CCC(=O)O)C(=O)N[C@@H](Cc1c[nH]c2ccccc12)C(=O)N[C@@H](CC(C)C)C(=O)N[C@@H](CC(C)C)C(=O)N[C@@H](C)C(=O)N[C@@H](CCC(N)=O)C(=O)N[C@@H](CCCCN)C(=O)N1CCC[C@H]1C(=O)N[C@@H](CO)C(=O)N[C@@H](CO)C(=O)NCC(=O)N[C@@H](C)C(=O)N1CCC[C@H]1C(=O)N1CCC[C@H]1C(=O)N1CCC[C@H]1C(=O)N[C@@H](CO)C(=O)O)C(C)C)[C@@H](C)CC
B4: AT690 (peptide)
peptide: EGTFISDYSIA[Nle]DKIK([AEEA-AEEA-γGlu-C18 diacid])QQDFVNWLLEQKPSSGAPPPS-OH
modifications: N-terminus assumed
SMILES: CCCC[C@H](NC(=O)[C@H](C)NC(=O)[C@@H](NC(=O)[C@H](CO)NC(=O)[C@H](Cc1ccc(O)cc1)NC(=O)[C@H](CC(=O)O)NC(=O)[C@H](CO)NC(=O)[C@@H](NC(=O)[C@H](Cc1ccccc1)NC(=O)[C@@H](NC(=O)CNC(=O)[C@@H](N)CCC(=O)O)[C@@H](C)O)[C@@H](C)CC)[C@@H](C)CC)C(=O)N[C@@H](CC(=O)O)C(=O)N[C@@H](CCCCN)C(=O)N[C@H](C(=O)N[C@@H](CCCCNC(=O)COCCOCCNC(=O)COCCOCCNC(=O)CC[C@H](NC(=O)CCCCCCCCCCCCCCCCC(=O)O)C(=O)O)C(=O)N[C@@H](CCC(N)=O)C(=O)N[C@@H](CCC(N)=O)C(=O)N[C@@H](CC(=O)O)C(=O)N[C@@H](Cc1ccccc1)C(=O)N[C@H](C(=O)N[C@@H](CC(N)=O)C(=O)N[C@@H](Cc1c[nH]c2ccccc12)C(=O)N[C@@H](CC(C)C)C(=O)N[C@@H](CC(C)C)C(=O)N[C@@H](CCC(=O)O)C(=O)N[C@@H](CCC(N)=O)C(=O)N[C@@H](CCCCN)C(=O)N1CCC[C@H]1C(=O)N[C@@H](CO)C(=O)N[C@@H](CO)C(=O)NCC(=O)N[C@@H](C)C(=O)N1CCC[C@H]1C(=O)N1CCC[C@H]1C(=O)N1CCC[C@H]1C(=O)N[C@@H](CO)C(=O)O)C(C)C)[C@@H](C)CC

What follows are binders tested against T1, human GIP receptor (assay: cell-based or functional assay).

Q: B1 was tested. Which “cAMP agonism % Emax” value did it give?
A: 0%

Q: What about the “cAMP antagonism” value of the same binder?
A: 1.26 nM

Q: What about the “cAMP antagonism % inhib” value of the same binder?
A: 96%

Q: And the “cAMP antagonism pIC50” value?
A: 8.9

Q: B2 was tested. Which “cAMP agonism % Emax” value did it give?
A: 7%

Q: What about the “cAMP antagonism” value of the same binder?
A: 20 nM

Q: What about the “cAMP antagonism % inhib” value of the same binder?
A: 75%

Q: And the “cAMP antagonism pIC50” value?
A: 7.8

Q: How did the “cAMP agonism % Emax” value turn out when B3 was run?
A: 4%

Q: And the “cAMP antagonism” value?
A: 1.47 nM

Q: What about the “cAMP antagonism % inhib” value of the same binder?
A: 88%

Q: What about the “cAMP antagonism pIC50” value of the same binder?
A: 8.8

Q: How did the “cAMP agonism % Emax” value turn out when B4 was run?
A: 6%

Q: And the “cAMP antagonism” value?
A: 15.9 nM

Q: And the “cAMP antagonism % inhib” value?
A: 76%

Q: What about the “cAMP antagonism pIC50” value of the same binder?
A: 7.8
